According to US20240000838A1 (SIMCERE INNOVATION, published 2024):

B1: CD5/CD33 Dual-CAR, construct S041 (other)
chain: EIQLVQSGGGLVKPGGSVRISCAASGYTFTNYGMNWVRQAPGKGLEWMGWINTHTGEPTYADSFKGRFTFSLDDSKNTAYLQINSLRAEDTAVYFCTRRGYDWYFDVWGQGTTVTVSSGGGGSDIQMTQSPSSLSASVGDRVTITCRASESVDNYGISFMNWFQQKPGKAPKLLIYAASNQGSGVPSRFSGSGSGTDFTLTISSLQPDDFATYYCQQSKEVPWTFGQGTKVEIKGSTSGSGKPGSGEGSTKGQVQLVQSGAEVKKPGSSVKVSCKASGYTFTDYNMHWVRQAPGQGLEWIGYIYPYNGGTGYNQKFKSKATITADESTNTAYMELSSLRSEDTAVYYCARGRPAMDYWGQGTLVTVSSGGGGSDIQMTQSPSSLSASVGDRVTITCRASQDINSYLSWFQQKPGKAPKTLIYRANRLESGVPSRFSGSGSGTDYTLTISSLQYEDFGIYYCQQYDESPWTFGGGTKLEIKASTTTPAPRPPTPAPTIASQPLSLRPEACRPAAGGAVHTRGLDFACDIYIWAPLAGTCGVLLLSLVITLYCKRGRKKLLYIFKQPFMRPVQTTQEEDGCSCRFPEEEEGGCELRVKFSRSADAPAYKQGQNQLYNELNLGRREEYDVLDKRRGRDPEMGGKPRRKNPQEGLYNELQKDKMAEAYSEIGMKGERRRGKGHDGLYQGLSTATKDTYDALHMQALPPR
B2: CD5/CD33 Dual-CAR, construct S039 (other)
chain: QVQLVQSGAEVKKPGSSVKVSCKASGYTFTDYNMHWVRQAPGQGLEWIGYIYPYNGGTGYNQKFKSKATITADESTNTAYMELSSLRSEDTAVYYCARGRPAMDYWGQGTLVTVSSGGGGSDIKMTQSPSSMYASLGERVTITCKASQDINSYLSWFHHKPGKSPKTLIYRANRLVDGVPSRFSGSGSGQDYSLTISSLDYEDMGIYYCQQYDESPWTFGGGTKLEMKGSTSGSGKPGSGEGSTKGNIQLVQSGPELKKPGETVKISCKASGYTFTNYGMNWVKQAPGKGLRWMGWINTHTGEPTYADDFKGRFAFSLETSASTAYLQINNLKNEDTATYFCTRRGYDWYFDVWGAGTTVTVSSGGGGSDIQMTQSPSSLSASVGDRVTITCRASESVDNYGISFMNWFQQKPGKAPKLLIYAASNQGSGVPSRFSGSGSGTDFTLTISSLQPDDFATYYCQQSKEVPWTFGQGTKVEIKASTTTPAPRPPTPAPTIASQPLSLRPEACRPAAGGAVHTRGLDFACDIYIWAPLAGTCGVLLLSLVITLYCKRGRKKLLYIFKQPFMRPVQTTQEEDGCSCRFPEEEEGGCELRVKFSRSADAPAYKQGQNQLYNELNLGRREEYDVLDKRRGRDPEMGGKPRRKNPQEGLYNELQKDKMAEAYSEIGMKGERRRGKGHDGLYQGLSTATKDTYDALHMQALPPR
B3: CD5/CD33 Dual-CAR, construct S038 (other)
chain: DIQMTQSPSSLSASVGDRVTITCRASESVDNYGISFMNWFQQKPGKAPKLLIYAASNQGSGVPSRFSGSGSGTDFTLTISSLQPDDFATYYCQQSKEVPWTFGQGTKVEIKGGGGSNIQLVQSGPELKKPGETVKISCKASGYTFTNYGMNWVKQAPGKGLRWMGWINTHTGEPTYADDFKGRFAFSLETSASTAYLQINNLKNEDTATYFCTRRGYDWYFDVWGAGTTVTVSSGSTSGSGKPGSGEGSTKGDIKMTQSPSSMYASLGERVTITCKASQDINSYLSWFHHKPGKSPKTLIYRANRLVDGVPSRFSGSGSGQDYSLTISSLDYEDMGIYYCQQYDESPWTFGGGTKLEMKGGGGSQVQLVQSGAEVKKPGSSVKVSCKASGYTFTDYNMHWVRQAPGQGLEWIGYIYPYNGGTGYNQKFKSKATITADESTNTAYMELSSLRSEDTAVYYCARGRPAMDYWGQGTLVTVSSASTTTPAPRPPTPAPTIASQPLSLRPEACRPAAGGAVHTRGLDFACDIYIWAPLAGTCGVLLLSLVITLYCKRGRKKLLYIFKQPFMRPVQTTQEEDGCSCRFPEEEEGGCELRVKFSRSADAPAYKQGQNQLYNELNLGRREEYDVLDKRRGRDPEMGGKPRRKNPQEGLYNELQKDKMAEAYSEIGMKGERRRGKGHDGLYQGLSTATKDTYDALHMQALPPR
B4: CD5/CD33 Dual-CAR, construct S037 (other)
chain: NIQLVQSGPELKKPGETVKISCKASGYTFTNYGMNWVKQAPGKGLRWMGWINTHTGEPTYADDFKGRFAFSLETSASTAYLQINNLKNEDTATYFCTRRGYDWYFDVWGAGTTVTVSSGGGGSDIQMTQSPSSLSASVGDRVTITCRASESVDNYGISFMNWFQQKPGKAPKLLIYAASNQGSGVPSRFSGSGSGTDFTLTISSLQPDDFATYYCQQSKEVPWTFGQGTKVEIKGSTSGSGKPGSGEGSTKGQVQLVQSGAEVKKPGSSVKVSCKASGYTFTDYNMHWVRQAPGQGLEWIGYIYPYNGGTGYNQKFKSKATITADESTNTAYMELSSLRSEDTAVYYCARGRPAMDYWGQGTLVTVSSGGGGSDIKMTQSPSSMYASLGERVTITCKASQDINSYLSWFHHKPGKSPKTLIYRANRLVDGVPSRFSGSGSGQDYSLTISSLDYEDMGIYYCQQYDESPWTFGGGTKLEMKASTTTPAPRPPTPAPTIASQPLSLRPEACRPAAGGAVHTRGLDFACDIYIWAPLAGTCGVLLLSLVITLYCKRGRKKLLYIFKQPFMRPVQTTQEEDGCSCRFPEEEEGGCELRVKFSRSADAPAYKQGQNQLYNELNLGRREEYDVLDKRRGRDPEMGGKPRRKNPQEGLYNELQKDKMAEAYSEIGMKGERRRGKGHDGLYQGLSTATKDTYDALHMQALPPR
B5: CD5/CD33 Dual-CAR, construct S036 (other)
chain: DIKMTQSPSSMYASLGERVTITCKASQDINSYLSWFHHKPGKSPKTLIYRANRLVDGVPSRFSGSGSGQDYSLTISSLDYEDMGIYYCQQYDESPWTFGGGTKLEMKGGGGSQVQLVQSGAEVKKPGSSVKVSCKASGYTFTDYNMHWVRQAPGQGLEWIGYIYPYNGGTGYNQKFKSKATITADESTNTAYMELSSLRSEDTAVYYCARGRPAMDYWGQGTLVTVSSGSTSGSGKPGSGEGSTKGDIQMTQSPSSLSASVGDRVTITCRASESVDNYGISFMNWFQQKPGKAPKLLIYAASNQGSGVPSRFSGSGSGTDFTLTISSLQPDDFATYYCQQSKEVPWTFGQGTKVEIKGGGGSNIQLVQSGPELKKPGETVKISCKASGYTFTNYGMNWVKQAPGKGLRWMGWINTHTGEPTYADDFKGRFAFSLETSASTAYLQINNLKNEDTATYFCTRRGYDWYFDVWGAGTTVTVSSASTTTPAPRPPTPAPTIASQPLSLRPEACRPAAGGAVHTRGLDFACDIYIWAPLAGTCGVLLLSLVITLYCKRGRKKLLYIFKQPFMRPVQTTQEEDGCSCRFPEEEEGGCELRVKFSRSADAPAYKQGQNQLYNELNLGRREEYDVLDKRRGRDPEMGGKPRRKNPQEGLYNELQKDKMAEAYSEIGMKGERRRGKGHDGLYQGLSTATKDTYDALHMQALPPR
B6: CD5/CD33 Dual-CAR, construct S040 (other)
chain: DIQMTQSPSSLSASVGDRVTITCRASQDINSYLSWFQQKPGKAPKTLIYRANRLESGVPSRFSGSGSGTDYTLTISSLQYEDFGIYYCQQYDESPWTFGGGTKLEIKGGGGSQVQLVQSGAEVKKPGSSVKVSCKASGYTFTDYNMHWVRQAPGQGLEWIGYIYPYNGGTGYNQKFKSKATITADESTNTAYMELSSLRSEDTAVYYCARGRPAMDYWGQGTLVTVSSGSTSGSGKPGSGEGSTKGDIQMTQSPSSLSASVGDRVTITCRASESVDNYGISFMNWFQQKPGKAPKLLIYAASNQGSGVPSRFSGSGSGTDFTLTISSLQPDDFATYYCQQSKEVPWTFGQGTKVEIKGGGGSEIQLVQSGGGLVKPGGSVRISCAASGYTFTNYGMNWVRQAPGKGLEWMGWINTHTGEPTYADSFKGRFTFSLDDSKNTAYLQINSLRAEDTAVYFCTRRGYDWYFDVWGQGTTVTVSSASTTTPAPRPPTPAPTIASQPLSLRPEACRPAAGGAVHTRGLDFACDIYIWAPLAGTCGVLLLSLVITLYCKRGRKKLLYIFKQPFMRPVQTTQEEDGCSCRFPEEEEGGCELRVKFSRSADAPAYKQGQNQLYNELNLGRREEYDVLDKRRGRDPEMGGKPRRKNPQEGLYNELQKDKMAEAYSEIGMKGERRRGKGHDGLYQGLSTATKDTYDALHMQALPPR
B7: CD5/CD33 Dual-CAR, construct S042 (other)
chain: DIQMTQSPSSLSASVGDRVTITCRASESVDNYGISFMNWFQQKPGKAPKLLIYAASNQGSGVPSRFSGSGSGTDFTLTISSLQPDDFATYYCQQSKEVPWTFGQGTKVEIKGGGGSEIQLVQSGGGLVKPGGSVRISCAASGYTFTNYGMNWVRQAPGKGLEWMGWINTHTGEPTYADSFKGRFTFSLDDSKNTAYLQINSLRAEDTAVYFCTRRGYDWYFDVWGQGTTVTVSSGSTSGSGKPGSGEGSTKGDIQMTQSPSSLSASVGDRVTITCRASQDINSYLSWFQQKPGKAPKTLIYRANRLESGVPSRFSGSGSGTDYTLTISSLQYEDFGIYYCQQYDESPWTFGGGTKLEIKGGGGSQVQLVQSGAEVKKPGSSVKVSCKASGYTFTDYNMHWVRQAPGQGLEWIGYIYPYNGGTGYNQKFKSKATITADESTNTAYMELSSLRSEDTAVYYCARGRPAMDYWGQGTLVTVSSASTTTPAPRPPTPAPTIASQPLSLRPEACRPAAGGAVHTRGLDFACDIYIWAPLAGTCGVLLLSLVITLYCKRGRKKLLYIFKQPFMRPVQTTQEEDGCSCRFPEEEEGGCELRVKFSRSADAPAYKQGQNQLYNELNLGRREEYDVLDKRRGRDPEMGGKPRRKNPQEGLYNELQKDKMAEAYSEIGMKGERRRGKGHDGLYQGLSTATKDTYDALHMQALPPR

Molecular target: T1, CD5 on human T cells (autologous and allogeneic Pan-T cells) and on the T-ALL cell line CCRF-CEM (human, UniProt P06127 25-495)
T1 sequence (looked up): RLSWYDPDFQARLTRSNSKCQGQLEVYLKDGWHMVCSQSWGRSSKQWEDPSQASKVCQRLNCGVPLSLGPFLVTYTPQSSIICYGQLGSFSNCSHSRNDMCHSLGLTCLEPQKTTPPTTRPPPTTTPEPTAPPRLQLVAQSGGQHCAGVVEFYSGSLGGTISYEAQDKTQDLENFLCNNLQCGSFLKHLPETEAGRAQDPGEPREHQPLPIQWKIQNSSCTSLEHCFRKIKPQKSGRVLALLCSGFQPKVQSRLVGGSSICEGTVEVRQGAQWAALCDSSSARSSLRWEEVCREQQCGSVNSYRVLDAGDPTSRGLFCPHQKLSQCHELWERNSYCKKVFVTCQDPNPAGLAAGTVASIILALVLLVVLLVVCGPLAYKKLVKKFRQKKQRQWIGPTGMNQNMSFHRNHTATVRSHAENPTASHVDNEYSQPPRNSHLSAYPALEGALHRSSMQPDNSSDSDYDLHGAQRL
Assay: cell-based or functional assay

| Binder | elimination of CCRF-CEM cells after 18 hours (luciferase-based killing assay) |
| --- | --- |
| B1 | ~100% |
| B2 | ~100% |
| B3 | ~100% |
| B4 | ~100% |
| B5 | ~100% |
| B6 | ~100% |
| B7 | ~100% |
